Results as given in the DeepSol protein solubility set.

Test: soluble on expression in E. coli; label from the status in PepcDB or PDB records

| Sequence | soluble on expression in E. coli |
| --- | --- |
| MKVIEVTHPIQSNQFITENVAMAFGFFDGMHRGHDKVFQVLDEKAKEHQLKKAVMTFDPHPSVVLNPERKRTTYLTPLSDKLEMIAEHGIDYCIVINFSSRFANVTSDDFIKNYIINNHVKEVIAGFDFTFGKFGKGNMTVLQESKAFNTTIVGKQEMDSEKISTTAIRQALTDGHLQKANDELGYIYRIKGTVVQGEKRGRTIGFPTANVQPSDDYVLPKKGVYAVSMEIGPESKLHRGVANVGVKPTFHDPTRAELVIEVNIFDFNENIYGERVTVYWHHFLRPEVKFDGIDPLVKQMNEDKAQAKHLLSIDFDDDISYNI | not soluble |
| MSHSLRYFVTAVSRPGFGEPRYMEVGYVDNTEFVRFDSDAENPRYEPRARWIEQEGPEYWERETRRAKGNEQSFRVDLRTALRYYNQSAGGSHTLQWMAGCDVESDGRLLRGYWQFAYDGCDYIALNEDLKTWTAADMAAQITRRKWEQAGAAERDRAYLEGECVEWLRRYLKNGNATLLRTDPPKAHVTHHRRPEGDVTLRCWALGFYPADITLTWQLNGEELTQEMELVETRPAGDGTFQKWASVVVPLGKEQKYTCHVEHEGLPEPLTLRWGKE | soluble |
| MKTYNIPVEATLEVIGGKWKVVILCHLKKDKKRTCELKQLMSGITQKMLTQQLRELEEDGVIERKVYNQVPPKVEYSLTDYGHSLDSILDTLCNWGENHLEKNGNTSMLITAAE | not soluble |
| MLAKIIMKNFKSFKNETVIDFTRINYKFLENNVSNNGVLKGVAFYGANASGKSNVLWAIRFLLDELFGEEKNPVTFMKCLFSDEPEFSLQYFFVIESREIHYLIDFHTEKGIINEELYLDRKLLLQRMGSTAKSGITEKKVYTDLNNKVLFLRTVYFNTGFSGDDKDNNANNNILRQWFDYMQNSIYVNPFLHRGIAYGKQDVVLNKYLENEGVKEINRFFTKYNFEYTLDYLNERKVKDVTEIVNDDNIKLVFFNRKGVNVPIPYVLESHGNQNLLNILPCFLRVVQNSGMLLVDEFSGGLHNELERLLVNYFFLEHHHHHH | not soluble |
| MGFYQGPDNRKITGGLKGKHRDKRKYEIGNPPTFTTLSAEDIRIKDRTLGGNFKVRLKYTTTANVLDPATNTAKKVKILEILETPANKELARRGIIIRGAKIRTEAGLAVVTSRPGQDGVINAVLLKNESQRS | soluble |
| EFGYSEMSAIGALIKALPESCALHLANSSVIRYAQLYQVPSTIEVCCNRGTSGIEGSLSTAVGYAAGSDKLNFIVIGDLSFFYDMNALWNINVRPNLRILLLNNGGGEIFHTLPGLDMSGTSHKYITAVHKTSAKGWAEERGFLYQRVENEEQLAEAMKTFTQPEAMEQPVLMEVFSN | not soluble |
| MIKLFTDSDLDGIGCGLLAKLAFAEVNISFCSYRNLDERVVQFLQSDEANGAMLFITDLAVGKEVEQQLAERAARGGHVQVIDHHVTALHFNDYPWGQVVPVRDDGKKTCATSLFYDYLVREGKLAPNETLDGFVELVRQYDTWEWEENGNLQAKRLNDLLTIFGLDGFWETMSERLASREPFSLTETEELLLDMEEKKIQRYIRQKQKQLVQRWLGDYCIGVVFAERHLSELGNALSKRYPHLDLIALVNMGTKHIGFRTIHDDVNVAEFAQQFGGGGHPKASGCLIDDTTFPLFVVETFPLLPVYGDAEQNQLNKKDEAEGVFWTNHHGQWWLSRKTAQGWSVYADGGETHTFPEEIAGERWLKRQFAAGLAHDAAVLDFLSVRLGRDKDAIQADYKAAVKQYKQQTGIES | not soluble |
| MFLNGNCLETLKKKEPEGGRRRLSHPGNMGWMRPSQETTPPDRSHHSGFGLFCGDPGPEIEPFSLWVFPQEMVLEIHQLFMDHEYPCHHITSHCTWVAAHWTTSQSCAAWQGCRRACCSTWWKSPAQCTRPTVMSATFETAQEPGPS | not soluble |
| MLVAYDSMTGNVKRFIHKLNMPAVQIDEDLVIDEDFILITYTTGFGNVPERVLDFLERNNEKLKGVSASGNRNWGDMFGASADKISTKYEVPIVSKFELSGTNNDVEYFKERVREIATH | soluble |
| MLSEETIRVIKSTVPLLKEHGTEITARMYELLFSKYPKTKELFAGASEEQPKKLANAIIAYATYIDRLEELDNAISTIARSHVRRNVKPEHYPLVKECLLQAIEEVLNPGEEVLKAWEEAYDFLAKTLITLEKKLYSQP | soluble |
| GTPLPENENMSLYQSRVTVGELEMLASRFVGRTRVRNAFAQYWSQQRETLLPNQQASSALIRHTERVLAGVFGASSAKLVLTSALQGRKMQLEEVATIVDEASELYDFSRGLLQGAIEHIG | not soluble |
| MTENERAHADHASASPQRTRRRRGKPRRRMDSGASTQGGGASKSAAPSSSTSGSRGERGSRGDDKDKQNKHTRRKRRPAHRSTQRGSHGGDSSNSGSGIKRRRHTGNKNRGNQSRRQNNRSSRITTRDETSAGGLVISGLAEAVDENNNVDLSRIYVALIGRL | not soluble |
| MAHHHHHHMTESRWITEALVQFSASPIWLTPIDNFVDDNCCIFSNESEMQLEYTVAHNKFKKLIDSLLTCFLMELGVSMETAVEALQSSLAVSVQTSEGLSEQQAAKKLLKQIFNADNFSHFHTMMVKRNLELDILANAALSSDGVCGNGGAALSTEEVEKETRARARVQRAIDVNGDVSEDDALRRAIEVSLQDGTAQQQVQAYRKACIQEDANLQLTAVEHQANSEKAQLEAVLQTQSAQNLPEGEHFRQNHVEPINKQKESQLQPIRAHAMSGKGQKGCDEAEPQKANFNSPESPCPLPALQVPAAASAPVAAPVSVPALPSIGQRQAALPSIPSTITASVLKSAPSAPAHQAHGTAVSATPAPTPIPTKEELEKRAQYMREQREKLLARNRASRQEQLNTFLQNNSSSTTTSSSAALAATGAAQSVTVEIARRLRGDLIGEARKSSG | soluble |
| MQPVTKNGESMNKTALLLTVVGAVLLTGCARQENEYTVKEYTSMANPASVYCVEQGGQLEMVTENEQRVTYCVTKDGEKIEQWEYFRQNHDQQ | not soluble |
| MAHHHHHHMKGVSIRQLDAIIILDSDGKRIAVKYYNDQFLPKGESKLIHKSPSRDSISYPFEDTYNNLRTVEDQKMFENDITEKARKLGGNSSETEVLILSKFTVLYLLINDVSIYIVGDEGDNEIILHEIMQTVQQCLESVTNNQIGRKQLLEKLDSIYLILDEIADSGIIMETNPNVIINRLYMHESDLQEHTPLNQAISSAKENIIRSLLSGT | soluble |
| MYILVTTGSMGFKRLFDAIVKSVIGKRIVIQTGKIDPTIYRNQNVTTFSFDPDLEKWIANASLVITHQGKTAMEAVVMYRKPVIMVYNNDWKSATTLSDAKKYAEILGATFLSDPITWSDYNVLLEAIENANEPNVFDTGTPNLVKHVLSEL | soluble |
| MSLSPEDLEATGARLVEELVEYRTRTQVSTAVIGMSGGVDSALTAALFKAAGWHVMGHTLPIEQDPTETDRGIEACAALGIEHRPLDLSGAYEAALAQLGELDPDLLSSDETPARTRRGNLRARLRMMTLYDQAHRLGGLVAGTDNFSELTAGFWTLHGDVGDLAPVQSLLKSWEVPWLARAYRVPEATWRAMPTDGLGIGGGDEAQIGATYLEWDILQFALAEALGDDPGLATRHLAFALRMDADRHAQEVLGTLIARMRATWHKRLNEGHHHHHH | not soluble |
| MNLQAREGAPLNRYYDPYFACDAVKLLPGEYFASGEDLVIVTVLGSCVSVCLRDPLNGIAGMNHFMLPERGLGGDPASPSARYGSHAMELLINRMLALGASRERLQAKVFGGGSVLRQISAAIGQRNVEFTLDYLATERIPLLASDVLEAFPRKIYFFPRNGRVLVKSLVELKNDTVLQRERDYRRRIDRNADGGPIDLF | not soluble |
| GSHMKVDITIKIQRDGQEIEIDIRVSTGKELERALQELEKALARAGARNVQITISAENDEQAKELLELIARLLQKLGYKDINVRVNGTEVKIEVRV | soluble |
| MNVDVLLKNVWLYQTVTQTFVQRNVAIKNDKFYYIYEEENVNLQPQKTINAENQWMIPGLIDAHMHIESSMTTPTIFSKAVVRYGVTTVIADAHEMANVFGLEGLKAFMAAETELDIFHAIPSSVPSTTPELETTGGIIGLAEVAELLKEPKVICLGEAMNFKGISYEPDSLIRQIIDLCQKQRPTMPLEGHCPKIEDQELADFLYSGITSDHTHQFPKTLKEKIEAGVFIQFQNKSITPENIQVIVDNDFYNYASIITDDVMADDLLKGHLNENVKKAVHAGLPIEKAIYMATYTPAKRMGLHDRGEIAPGKKADFLLLNDLESFDINTVYKSGKVVFEKGEPFHYPEKIEEFPATYQQTIQCKKLTEEDLLLKVATTKETVRCNVIQKQEIGTFTERITKEIPVENGLLQWQKANCALLIVMERYGKNGNISFSLMDQPLSEKGAIATTWAHDHHNLMVMGNTIEDILLAQNELLAMQGGYLVASDQQVMATCPLPIGGILSQAPIEQLGASLQKVRQAMQALGYQNMNEIMSFSTLSLPVSPAIKVTDFGMMDTKSQRFYPLVFPEDGVLLHENTH | not soluble |
| MKIAAIYTQSVGPLPDGEIRFENDWSGEIESNVLITGPNGCGKSTLLRAISLLWRAFGHWLGTGTRLNIKDESYTWFYRWDASCAMILDSFSPKSEDQIGLFLGSEAFLVQLKEKYPQVYWLGETVSRTKGTTPETTVFTSSEHFFLPYKNWWSHWSSQYQRLVLKGPSVDMPNLVYLDAEARRWVRPQKDIGSLSPDDSTQAWLATYEVNDNWKGQLESSLFNMKATMPGEYPEMIATLNQFFSGKRIEAEIHPGQRQRVLLDSGNDHSLDALSSGEHQVLIMLFTVQRWLQPGGVVLIDEPDLHLHPSLISPLLASIENIVARKNGQLVMTSHATDIWQRYDNMGLRIDLTDGKDAENGQRLEHHHHHH | soluble |
| MKTINLSIFGLGNVGLNLLRIIRSFNEENRLGLKFNVVFVADSLHSYYNERIDIGKVISYKEKGSLDSLEYESISASEALARDFDIVVDATPASADGKKELAFYKETFENGKDVVTANKSGLANFWPEIMEYARSNNRRIRYEATVAGGVPLFSFIDYSVLPSRIKKFRGIVSLTINYFIRELANKREFDDVLSEATKLGIVEKNYKDDLTGLDAARKSVILCNHLYGSSYRLSDVFYEGILDQDRSFGKNERLVTETGIVNGKPSAESRIKSLDSNDYLLTLGKGSLGYQLQTDTNGTLNVSDLYDGPYETAGAVMNDLVILSMFTV | soluble |
| EVQLQQSGPELVKPGASVKISCKASGYSFTGHLLNWVKQSHGKNLEWIGLVHPHNGAITYNQKFKDKATLTVDRSSTTAYIELVRLTSNDSAVYYCAREDFRYHYSMDYWGQGTSVTVSSAKTTPPSVYPLAPVCGDTTGSSVTLGCLVKGYFPEPVTLTWNSGSLSSGVHTFPAVLQSDLYTLSSSVTVTSSTWPSQSVTCNVAHPASSTKVDKKIVPK | soluble |
| MSLTTSKTRKSGVAMTEKLELDPARTAIVLIEYQNEFTSDGGVLHGAVADVMQHTGMLANTVAVVDAARQAGVPIMHAPITFAEGYGELTRHPYGILKGVVDGKAFVKGTWGAAIVDELAPVNGDIVIEGKRGLDTFASTNLDFILRSKGVDTIVLGGFLTNCCVESTMRTGYERGFRVITLTDCVAATSQEEHNNAISYDFPMFSVPMTSADVIAALEGHHHHHH | soluble |
| MIDTHIHSDTRGLEDLELMAMCLDGVITLAHDPFEMKNIKVWEAHVEKLLINELERAKKVGLNLFICVGMHPRAIPPEIDEALDKIKSYINYNSRVVGIGEIGLEKATKEEKEVFIKQLLLAEELNMPAVVHTPRRNKEEVTKIILDEISTLNLKNRDIVIEHCNKETTKWVLDEEFYVGLTIQPGKLTPLEAVEIVKEYKDFADKILLNSDCSSNASDVLAVPRTVLKMKINGIEKDVIYKVAHKNAVNLFGLDI | not soluble |
